± gives the uncertainty stated by the source.
Assay: protein stability index of a GFP-peptide fusion (yeast GPS) (PSI 1-4); higher = more stable; sorted into four equal gates, so the index is relative within each strain
In short: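 Sequencing reads from sorted gates were used to score each peptide. The library consisted of tiled 17-residue yeast protein peptides fused downstream of GFP on a Cherry-expressing plasmid, pooled and carried in yeast. Mid-log cultures in leucine-free medium were split into four equal gates by GFP/Cherry ratio, and each gate's plasmids were PCR-amplified and Illumina-sequenced. The protein stability index adds up, over all gates, the read frequency multiplied by the gate number.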

Sequence | protein stability index (doa10∆) | protein stability index (pdr5∆) | protein stability index (san1∆) | protein stability index (ubr1∆)
EDEDEDLFGDSNKSNST [SSN2] | 2.69 ± 0.05 | 2.82 ± 0.061 | 2.86 ± 0.079 | 2.18 ± 0.032
PVSLLNSQLVGKPHFSL [PCI8] | 2.1 ± 0.084 | 2.37 ± 0.074 | 1.88 ± 0.21 | 2.21 ± 0.052
NTIRQNVTSSGDHNKLR [YML103C/NUP188] | 3.12 ± 0.17 | 3.04 ± 0.16 | 3.21 ± 0.075 | 2.98 ± 0.097
EKDAVSVFGFRTQFGGG [RPS24A] | 1.92 ± 0.068 | 2.09 ± 0.094 | 2 ± 0.14 | 1.93 ± 0.064
EKLLKELENNEFTENEL [ITC1] | 3.43 ± 0.074 | 3.21 ± 0.078 | 3.33 ± 0.069 | 3.33 ± 0.097
KPYKQVKQIAPAELEGL [FAS2] | 2.36 ± 0.061 | 2.14 ± 0.055 | 2.47 ± 0.083 | 1.9 ± 0.053
TSSIFQESFNSVQNLDQ [NUT1] | 3.16 ± 0.086 | 2.64 ± 0.057 | 2.98 ± 0.048 | 3.14 ± 0.054
DTLLLLPTDGGLTSRLQ [POP4] | 3.01 ± 0.14 | 3.06 ± 0.15 | 3.13 ± 0.095 | 3.26 ± 0.13
SMSGRISAKDMGQGLCN [BRR2] | 3 ± 0.11 | 3.03 ± 0.084 | 3.02 ± 0.076 | 3.19 ± 0.078
DSYLILDTLPSEFDSRV [RPT5] | 2.83 ± 0.09 | 3.48 ± 0.12 | 3.23 ± 0.062 | 3.1 ± 0.036
NKSISDEITEDMFEMSD [SSN2] | 3.03 ± 0.075 | 3.1 ± 0.075 | 2.82 ± 0.058 | 3.1 ± 0.05
VKNNQELDQEYRSCETQ [SMC4] | 2.95 ± 0.2 | – | – | –
KYNAFIASEVLIKQVPR [RPL1A] | 1.73 ± 0.085 | 1.57 ± 0.06 | 1.39 ± 0.15 | 1.66 ± 0.045
IAKTFTVDVSSPTENGV [RPL22A] | 3.04 ± 0.11 | 3 ± 0.1 | 2.9 ± 0.094 | 2.99 ± 0.077
TYLTQEILILINDPTNK [SIN4] | 1.31 ± 0.06 | 1.55 ± 0.051 | 1.36 ± 0.091 | 1.26 ± 0.05
QRQYKVQLLLHINSILL [SNF11] | 1.88 ± 0.082 | 1.84 ± 0.061 | 1.89 ± 0.098 | 1.96 ± 0.057
NNDQKRQQAYKTAQTLD [YJL041W/NSP1] | 3.14 ± 0.071 | 3.17 ± 0.063 | 3.33 ± 0.053 | 3.23 ± 0.047
VPHYNRLDSYKVIEQPI [RPL25] | 1.8 ± 0.095 | 2.21 ± 0.11 | 2.02 ± 0.11 | 2.21 ± 0.11
ETELPTLSLPDSQDYIL [SMC1] | 3.1 ± 0.043 | 3.19 ± 0.054 | 3.11 ± 0.037 | 3.29 ± 0.055
YGYPSYSTIRQLVYKRG [RPL7A] | 1.27 ± 0.061 | 1.52 ± 0.046 | 1.25 ± 0.12 | 1.41 ± 0.047

Sequence | protein stability index (doa10∆) | protein stability index (pdr5∆) | protein stability index (san1∆) | protein stability index (ubr1∆)
RNEKIAVHVTVRGPKAE [RPL11A] | 2.54 ± 0.067 | 2.3 ± 0.061 | 1.93 ± 0.12 | 2.62 ± 0.053
LPGTEKGRKTNKYANND [CSL4] | 3.22 ± 0.12 | 3.5 ± 0.13 | 3.2 ± 0.072 | 3.41 ± 0.19
SLNSMTNAKLPNVDLVT [RGR1] | 2.53 ± 0.087 | 2.74 ± 0.064 | 2.52 ± 0.061 | 2.46 ± 0.041
DDPLENMFGDYSNEPFN [SNF6] | 2.98 ± 0.087 | 2.81 ± 0.069 | 3.26 ± 0.085 | 3.16 ± 0.058
VATNIVNEDPIFHPMIH [YML103C/NUP188] | 2.53 ± 0.046 | 2.63 ± 0.045 | 2.44 ± 0.045 | 2.58 ± 0.038
EINYAFSMDEEFKNMDC [SIR3] | 3.09 ± 0.068 | 3.14 ± 0.053 | 3.22 ± 0.04 | 3.25 ± 0.048
FGINTNTTKTADTKAPT [YLR335W/NUP2] | 3.4 ± 0.085 | 3.41 ± 0.073 | 3.19 ± 0.07 | 3.5 ± 0.048
FQHILRLLNTNVDGNIK [RPS18A] | 2.87 ± 0.05 | 2.95 ± 0.064 | 2.83 ± 0.045 | 2.59 ± 0.043
LVSDSEIIDLNLHSFTK [POP6] | 2.62 ± 0.072 | 2.81 ± 0.069 | 2.31 ± 0.07 | 2.71 ± 0.048
ARIFEFPKTTVAALRFT [RPL18A] | 1.94 ± 0.11 | 1.67 ± 0.076 | 2 ± 0.19 | 1.79 ± 0.098
HALYLAPSGIRMHLAPA [SSN2] | 1.32 ± 0.085 | 2.05 ± 0.085 | 2.09 ± 0.13 | 2.04 ± 0.061
TQVRVEFLEDTSRTIVR [RPS28A] | 3.37 ± 0.24 | 3.06 ± 0.13 | 2.91 ± 0.095 | 3.3 ± 0.14
LLQLIQSQPQEKFSEKM [ECM29] | 2.49 ± 0.098 | 2.02 ± 0.098 | 2.46 ± 0.093 | 2.47 ± 0.071
SESKDSDKPSLPSAVDG [YLR335W/NUP2] | 3.41 ± 0.1 | 3.38 ± 0.1 | 3.28 ± 0.11 | 2.95 ± 0.15
QLVLRGLLSQAIGCIER [YJR042W/NUP85] | 1.98 ± 0.11 | 2.15 ± 0.073 | 1.71 ± 0.099 | 2.3 ± 0.076
LFGSSNNNNNNNNSNNI [YGL172W/NUP49] | 2.93 ± 0.077 | 2.33 ± 0.056 | 2.53 ± 0.086 | 2.6 ± 0.097
SSLNLEDTPANDSSATR [RPB8] | 2.92 ± 0.067 | 2.85 ± 0.065 | 2.68 ± 0.063 | 3.08 ± 0.048
LRIVKPTVSLTINLDRF [RPC82] | 2.29 ± 0.068 | 2.29 ± 0.054 | 2.46 ± 0.063 | 2.43 ± 0.11
DEINTAQDKWHLLPAFL [RET1] | 3.51 ± 0.16 | 3.31 ± 0.13 | 3.29 ± 0.07 | –

— the supplement of paper PMC9732359
